Reference: paper PMC2556353, “Identification of direct regulatory targets of the transcription factor Sox10 based on function and conservation”

B1: SOD3 mutated probe (MT) (dsDNA)
DNA 1: GAAGAGGCAGACTGGTCTCT
DNA 2: AGAGACCAGTCTGCCTCTTC
B2: SOD3 probe (WT) (dsDNA)
DNA 1: GAAGAGGCACAATGGTCTCT
DNA 2: ACCATTGTGCCTCTTC

Experiments:
[1] = molecular target: T1, GST-SOX10 HMG (mouse, UniProt Q04888 80-185); assay: competition; unlabeled excess against labeled WT SOD3 probe; did not effectively compete; 10 mM HEPES pH 8.0, 5% glycerol, 50 mM NaCl, 5 mM MgCl2, 2 mM DTT, 0.1 mM EDTA, 4 ug BSA, 2 ug poly(dIdC) in 35 ul; 25 min at room temperature; 5% PAGE in 1x TBE; conditions: protein: recombinant; tags: N-terminal GST (pGEX-4T-1); blunt
T1 sequence (Q04888 80-185): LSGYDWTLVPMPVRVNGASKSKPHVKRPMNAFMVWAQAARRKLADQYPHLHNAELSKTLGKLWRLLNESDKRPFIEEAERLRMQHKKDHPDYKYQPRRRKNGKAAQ

[2] = molecular target: T1, GST-SOX10 HMG; assay: EMSA; specific unlabeled probe abrogates the complex; 10 mM HEPES pH 8.0, 5% glycerol, 50 mM NaCl, 5 mM MgCl2, 2 mM DTT, 0.1 mM EDTA, 4 ug BSA, 2 ug poly(dIdC) in 35 ul; 25 min at room temperature; 5% PAGE in 1x TBE; conditions: protein: recombinant; tags: N-terminal GST (pGEX-4T-1); label: 32P end label (probe); 3' overhang 4 nt on strand 1 as printed (20-mer/16-mer)

| Binder | binding result [1] | binding result [2] |
| --- | --- | --- |
| B1 | no binding | – |
| B2 | – | binds |
